The source of these data is patent US20210079101A1 (LABORATOIRE FRANAIS DU FRACTIONNEMENT ET DES BIOTECHNOLOGIES, published 2021).

This test has as its target T1, Galectin-3 protein (human, UniProt P17931 2-250).
T1 construct: Endogenous antigen in human atheroma tissue sections; also called Gal3
The test is described as follows: double immunofluorescence staining of human endarteriectomy sections (colocalisation with anti-galectin-3 antibody). From the text: FIG. 3: Immunofluorescent staining of human endarteriectomy sections and aortas of ApoE^{-/-} and WT mouse with P3 scFv-Fc or commercial control antibodies. (A) Double immunofluorescence staining of human endarteriectomy sections. […] Size bars: 50 μm. (B) Fluorescent macroscopy of P3 scFv-Fc after ex vivo injection in ApoE^{-/-} mouse and WT mouse. A human IgG was used as a negative control antibody.
Human tissue specimens were provided by Pr DUCASSE Eric, vascular surgeon at CHU Pellegrin. For immunofluorescence stainings, human sections were deparaffinised and rehydrated. After a retrieval step (pH9), slides were blocked with (1) PBS/1% BSA/0.2% Triton X10 followed by (2) 5% goat serum and (3) addition of goat anti human IgG H+L and Fcγ specific diluted at 100 μg/mL. Primary scFv-Fc produced in baculovirus or commercially available antibodies were added overnight at 4° C. Slides were incubated with scFv-Fc diluted at 50 μg/mL in PBS/1% BSA and, as controls, secondary antibody alone or commercial antibodies according to the manufacturer's instructions. […] After 1h incubation, slides were washed in PBS 3 times and mounted with Vectashield (VWR, France).

T1 sequence (P17931 2-250 limits assumed): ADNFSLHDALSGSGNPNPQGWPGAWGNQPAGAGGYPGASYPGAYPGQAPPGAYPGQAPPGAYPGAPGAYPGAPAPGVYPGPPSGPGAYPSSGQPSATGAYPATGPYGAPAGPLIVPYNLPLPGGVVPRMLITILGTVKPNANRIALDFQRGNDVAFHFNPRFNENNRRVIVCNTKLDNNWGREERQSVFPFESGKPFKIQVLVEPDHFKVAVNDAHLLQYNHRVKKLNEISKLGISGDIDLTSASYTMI

B1: P3 scFv-Fc (Fc fusion)
chain: QVQLQQSGPGLVKPSQTLSLTCAISGDSVSSNNFGWNWIRQSPSRGLEWLGRTYYRSKWYNDYAVSVRSRITINPDTSKNQFSLQLNSVTPEDTAVYYCARQGSTYFDYWGQGTLVTVSSEFGGGGSGGGGSGGGGSRDIVMTQSPSSLSASVGDRVTITCRASQTISSSLAWFQQRPGEAPNLLIYSASSLQSGVPSRFSGSGSGTDFTLTISSLQPEDFATYSCQQTYSAPPTFGGGTKLEIK
notes: these probably describe the HEK construct without the 2 extra cysteines; also called scFv-Fc P3; Human P3 scFv-Fc; not shown: human IgG1 Fc domain with 2 extra cysteine residues at the C-terminal end (baculovirus/Sf9 construct)
B1: the binding result is on record as “binds”.
